Measured values reported in US20170360875A1 (priority 2014, published 2017).
Several values for one entry are separate records, joined by “and”; a condition that tells them apart may be missing. Equal entries are not always repeated.

Molecular target: Sudan Ebolavirus, Boniface (Bei Resources NR-31810; sonicated, gamma-irradiated infected Vero E6 cell pellets)

Q: How did the OD 405 nm turn out when “preformed immune complex of peroxidase-rabbit anti-peroxidase IgG (PAP complex) (from UniProt P00433 31-338)” was run?
A: The OD 405 nm was 1.42 OD 405 nm and 1.29 OD 405 nm and 1.08 OD 405 nm.
